± gives the half width of the 95% confidence interval.
Legend:
[1] = folding stability dG unfold from trypsin proteolysis; higher = more stable
Method in brief: (§1)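 Only designs with AlphaFold2 dimer inter-PAE above 15 were retained; each was a mini-protein under 80 residues with no cysteine, in a PA-tagged cDNA display construct. After digestion with trypsin and chymotrypsin and sequencing, K50 was inferred by Bayesian fitting of counts, and unfolding free energy was derived per protease or combined against a sequence-predicted unfolded-state K50 and a shared folded-state K50.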

[2] = folding stability dG unfold from chymotrypsin proteolysis; higher = more stable
Method in brief: as §1

[3] = folding stability dG unfold (combined trypsin and chymotrypsin); higher = more stable
Method in brief: as §1

Row | Sequence | folding stability dG unfold [1] [kcal/mol] | folding stability dG unfold [2] [kcal/mol] | folding stability dG unfold [3] [kcal/mol]
1 | SAGGSAGGSAGGMPVEVTTLETRKDPAGTTTEITLDPKTGRTIIVTKYPNGGSETTVVESAGGSAGGSAGGS [r10_1118_JUSTAS] | 0.788 ± 0.069 | 0.504 ± 0.065 | 0.622 ± 0.17
2 | SAGGSAGGSAGGMRIRLENGEVIKIKNAKTKEELLNALKAIPGLKIEYDEETKELWIYRSAGGSAGGSAGGS [r10_792_TrROS_Hall] | 1.88 ± 0.075 | 2.33 ± 0.097 | 2.22 ± 0.16
3 | SAGGSAGGSAGGMSLSTSVESLTVFDSSGNVLEERTITVEKTVPLFGKPVYVYPTPSNTLSAGGSAGGSAGG [r17_325_JUSTAS] | 0.136 ± 0.1 | 0.248 ± 0.11 | 0.265 ± 0.12
4 | SAGGSAGGSAGGMSPGSSSTTVTTTTSPNGTVVTTTTTTTLDPNSNTTSSTTTTTTTTTSAGGSAGGSAGGS [r10_1164_JUSTAS] | 3.15 ± 0.25 | 1.74 ± 0.18 | 2.42 ± 0.25
5 | SAGGSAGGSAGGMSSTVSLSTSFLPNGEKVVTTTTTFTDSSTTTTTTTTTTVALPPPSVVSAGGSAGGSAGG [r7_495_JUSTAS] | 1.14 ± 0.075 | 0.984 ± 0.093 | 1.23 ± 0.14
6 | SAGGSAGGSAGGMSVTVSREKLPDGSYLVTVTTEVGGGPVTTPYRVPPSLSSAEEVVEKLSAGGSAGGSAGG [r7_75_JUSTAS] | -0.0439 ± 0.14 | -0.659 ± 0.51 | -0.23 ± 0.2
7 | SAGGSAGGSAGGMTAIIVESEEEAKKIAEEKGIKDVKFIPKGKPELLKPDVDKVIKINKKSAGGSAGGSAGG [r7_381_JUSTAS] | -0.282 ± 0.22 | 0.348 ± 0.075 | 0.102 ± 0.33
8 | SAGGSAGGSAGGMTAKEIAEKLGLPPGAKVVKIEYDKETNTFYIVIEVDGELKTYRIDVSAGGSAGGSAGGS [r10_17_TrROS_Hall] | 4.2 ± 0.14 | 4.765 ± 0.037 | 4.69 ± 0.087
9 | SAGGSAGGSAGGMTITIKVPPNMTEEQLRELARELARKLGLEDVEVRIERREDGTVRITFSAGGSAGGSAGG [r7_810_TrROS_Hall] | 4.91 ± 0.2 | 4.83 ± 0.12 | 4.85 ± 0.15
10 | SAGGSAGGSAGGMTITLVDPENGVKEAEIEEVDGKLRITVVNEETGEKEEIELPLEELLSAGGSAGGSAGGS [r10_772_TrROS_Hall] | 0.648 ± 0.063 | 0.288 ± 0.14 | 0.477 ± 0.16
11 | SAGGSAGGSAGGMTITVNGPTATITYPDGSVETIPLTSPEEFEALKAAHPDVEATPASPSAGGSAGGSAGGS [r10_1211_JUSTAS] | 0.353 ± 0.047 | 1.21 ± 0.014 | 0.967 ± 0.093
12 | SAGGSAGGSAGGMTIVIVVPAENLTPEEIAELLREAGYEVTVERREDGYLVVTVRLPEPSAGGSAGGSAGGS [r10_1254_TrROS_Hall] | 3.5 ± 0.083 | 3.08 ± 0.052 | 3.43 ± 0.048
13 | SAGGSAGGSAGGMTKLEPLATEPNPLKVLTKVTTTDPVTGKPKTTIVETEIPVPESELGSAGGSAGGSAGGS [r10_846_JUSTAS] | 0.0416 ± 0.06 | -0.0657 ± 0.13 | 0.0083 ± 0.12
14 | SAGGSAGGSAGGMTLEELKKAIENAKPGETIEIEINGETYRITIIEKDGKLIIKIEKLPPSAGGSAGGSAGG [r7_448_TrROS_Hall] | 4.36 ± 0.36 | 4.21 ± 0.25 | 4.19 ± 0.24
15 | SAGGSAGGSAGGMTLVIVVETEEQAEALAEELKKKGFEVTVERDEETNLLVVTVKVKPPPSAGGSAGGSAGG [r7_623_TrROS_Hall] | 4.04 ± 0.25 | 3.36 ± 0.11 | 3.66 ± 0.12
16 | SAGGSAGGSAGGMTPEEIEAALQKAREENSEDEEFTVTVTDPETGEVLTIRIDPNSVTIESAGGSAGGSAGG [r7_45_JUSTAS] | 1.15 ± 0.034 | -0.0816 ± 0.11 | 0.719 ± 0.08
17 | SAGGSAGGSAGGMTPEEIEALKARPLPDGSPILSIDREGNVYTITTARDPSVRTTVIPAESAGGSAGGSAGG [r7_995_JUSTAS] | -0.623 ± 0.61 | -0.853 ± 0.43 | -0.626 ± 0.54
18 | SAGGSAGGSAGGMTPIEKEEPHHHMTFTREGDTVSLETFPGSGSIRKTLPSEEEVEKLLSAGGSAGGSAGGS [r10_1104_JUSTAS] | -0.413 ± 0.071 | 0.156 ± 0.096 | 0.00761 ± 0.11
19 | SAGGSAGGSAGGMTTTTTAPESGDLVTIHPEKGIAVVTSPEGKVTEVPIDPDDYSVEPASAGGSAGGSAGGS [r10_568_JUSTAS] | 0.343 ± 0.076 | 1.57 ± 0.079 | 1.19 ± 0.12
20 | SAGGSAGGSAGGMTTTTVSRSPDGTITTTTTTYVPTPDGSVVPVTTTTTTTPIDPAALSSAGGSAGGSAGGS [r10_991_JUSTAS] | 1.45 ± 0.046 | 1.39 ± 0.017 | 1.42 ± 0.036
21 | SAGGSAGGSAGGMTVTVEISIPVTVETSFFKPNKPYFKKKTINKKITIEIPNGEPLSLLSAGGSAGGSAGGS [r10_633_JUSTAS] | 0.492 ± 0.14 | -0.0788 ± 0.2 | 0.249 ± 0.13
22 | SAGGSAGGSAGGMTVVERTIEVEPDAKVIPLNLPGSNISATVLEYDPETGTLKVKIYVKESAGGSAGGSAGG [r17_198_JUSTAS] | 0.485 ± 0.05 | 1.06 ± 0.12 | 0.945 ± 0.11
23 | SAGGSAGGSAGGMVELDPENGTLTVLVEVDGELYKVTIKFNPETNEIVSIEVEKLPELEESAGGSAGGSAGG [r7_343_TrROS_Hall] | 3.03 ± 0.41 | 3.85 ± 0.31 | 3.66 ± 0.42
24 | SAGGSAGGSAGGMVIKITTESGEKIEIEVPEEDEEKVKELVKELEKAGFKVKKVEVFEPSAGGSAGGSAGGS [r10_231_TrROS_Hall] | 1.6 ± 0.11 | 1.87 ± 0.073 | 1.77 ± 0.17
25 | SAGGSAGGSAGGMVRITVEVDGKTYELVVEGMSLEEIEELLKKPNIKKAKVEPLSEEELKSAGGSAGGSAGG [r7_502_TrROS_Hall] | 1.24 ± 0.04 | 2.71 ± 0.09 | 2.32 ± 0.098
26 | SAGGSAGGSAGGMVVKIKVDGKTITLSAEELKKNKDLLKELEKKGYKIVSIEVFEPEEESAGGSAGGSAGGS [r10_396_TrROS_Hall] | 1.57 ± 0.056 | 1.71 ± 0.027 | 1.67 ± 0.08
